Assay results as given in the nanobody polyreactivity screen of Harvey et al. (2022).

Test: yeast display, Sf9 membrane polyspecificity reagent, FACS + sequencing; frameworks hold sequencing errors
In short: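 Galactose-induced (36–48 hours) yeast carrying a synthetic nanobody display library were exposed to 10% biotinylated, detergent-solubilized Sf9 membrane reagent at 4 °C for 1 hour. FACS followed streptavidin microbead enrichment, using low and high (top ~1%) gates for expression (anti-HA) and reagent binding (streptavidin). Colony PCR, MiSeq 2 × 250 sequencing and CDR-length filtering followed. Labels for polyreactivity reflect the gate of origin.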

| Sequence | polyreactivity (PSR sort gate) |
| --- | --- |
| QVQLVESGGGLVQAGGSLRLSCAASGSIFDRNAMGWYRQAPGKERELVAAISRSSGNTYYADSVKGRFTISRDNAKNTVYLQMNSLKPEDTAVYYCAAKPTYPKRYNYWGQGTQVTVSS | high polyreactivity |
| QVQLVESGGGLVQAGGSLRLSCAASGSIFGGYAMGWYRQAPGKERELVAAITSSGGRTYYADSVKGRFTISRDNAKNTVDLQMNSLKPEDTAVYYCAASPNYYYYYPMYYWGQGTQVTVSS | high polyreactivity |
| QVQLVESGGGLVQAGGSLRLSCAASGRIIQYNAMGWYRQAPGKERELVAAMSWRSGRTYYADSVKGRFTISRDNAKNTVYLQMNSLKPEDTAVYYCAATSRTSWYGYWGQGTQVTVSS | high polyreactivity |
| QVQLVESGGGLVQAGGSLRLSCAASGSIFTGNTMGWYRQAPGNERELVAAMSRRGGRTYYADSVKGRFTISRDNAKNTVYLQMNSLKPEDPAVYYCAADGWYWTYIVEYWGQGTQVTVSS | high polyreactivity |
| QVQLVDSGGGLVQAGGSLRISCAASGNILIGNVMGWYRQAPGKERELVAAITSGGDTYYADSVKGRITISRDNAKNTVYLQMNSLKPEDTAVYYCAADRPGQPKYEYWGQGTQVTVSS | low polyreactivity |
| QVQLVESGGGLVQAGGSLRLSCAASGRTFYSYAMGWYRQAPGKERELVAGITWSGTSTYYADSVKGRFTISRDNAKNTVYLQMNSLKPEDTAVYYCAAATLYSRYDYWGQGSQVTVSS | low polyreactivity |
| QVQLVESGGGLGQAGGSLRLSCAASGRIFYSNVMGWYRQAHGKEREFVAAISGRTGGTYYADSVKGRFTISRDNAKNTVYLQMNSLKPEDTAVYYCAARVIYYYGSGPYDYWGQGTQVTVSS | low polyreactivity |
| QVQRVESGGGLVQAGGSLRLSCAASGSIFFRNVMGWYRQAPGKERELVAAISSRGGSTYYADSVKGRFTISRDIAKNTVYLQMNSLKPEDTAVYYCATSHTPTYNYWGQGPQVTVSS | high polyreactivity |
| QVQLVESGGGLVQAGGSLRLSCAASGRIFFRYDLGWYRQAPGKERELVAAISGGDRTSYADSVKGRFTISRDNAKITVYLQMNSLKPEDTAVYYCAGKRRSGEYYYWGQGTQVTVSS | low polyreactivity |
| QVQLVESGGGLVQAGGSLRLSCAASGRTFVGYTMGWYRQAPGKERELVAAIDLSDGSTSYADSVKGRFTISRDNAKNTVYLQMNSLKPEDTAVYYCAKSWANVYAGAHDYWGQGTQVTVSS | low polyreactivity |
| QVQLVESGGGLVQAGGSLRLSCAASGSTFVGYAMGWYSPAPGKERELVADIDSIGGSTYYADSVKGRFTISRDYANNTVYLQINSLKPEDTAVFYCAARRFDTALVLYDYWGPGTQVTVSS | low polyreactivity |
| QVQLVESGGGLVQAGGSLRLSCAASGSIFRYNAMGWYRQAPGKERELVAAITSGDSTYYADSVKGRFTISRDNAKNTVYLQMISLKPEDTAVYYCAADDWRPFDGYYPLKSEREYWGQGTEVTVSS | low polyreactivity |
| QVQLVESGGGLVQAGGSLRLSCAASGSIFSSNAMGWYRQAPGKERELVAAITRGGRTTYADSVKGRFTISRDNAKKTVYLQMNSLKPEDTAVYYCNAESYLTGWWVDYWGQGTQVTVSS | low polyreactivity |
| QVQLVESGGGLVQAGGSLRLSCAASGSTFVDNDMGWYRQAPGKERELVAAAITARGGSTYYADSVKGRFTISRDNAKNTVYLQMNSLKPEDTAVYYCAAGRPGELDYWGQGTQVTVSS | low polyreactivity |
| QVQLVESGGGLVQAGGSLRLSCAASGRIFGTNAMGWYRQAPGKERELVAAISRGGNTYYADSVKGRFTISRDNAKNTVYLQMNSLKPEDTAVYYCAARPGSGRSYTSDYWGQGTQVTVSS | high polyreactivity |
| QVQLVESGGGLVLAGGSLRLSCAASGFIFARYAMGWYRQAPGKERELVAAISRGGSTYYADSVKGRFTISRDNAKNTVYFQMHSLKPEDTAVYYCNKRQLPNARGSSTYEYWGQGTQVTVSS | high polyreactivity |
| QDQLVESGGGLVQAGGSLRLSCAASGSTFEYYAMGWYRQAPGKERELVAAISSGPSTTYADSVKGRFTISRDNAKNTVYLQMNSLKPEDTAVYYCARRDGTTQALFGYDYWGQGTQVTVSS | low polyreactivity |
| QVQLVESGGGLVQEGGSLRLSCDASAITIGRYAMGWYRQAPGKERELVAAISWSGGSTYFADSVKGRFTISRDNAKNTVYLHMNSLKPEDTAVYYCATRIRTVAYNYWGQGTQVTVSS | high polyreactivity |
| QVQLVESGGGLVQAGGSLRLSCAASGFTFARYAMGWYRQAPGKERELVAAISRGTTTYYADSVKGRFTISRDNAKNTVYLQMNSLKPEDTAVYYCAARAVSEYFVVPFYYWGQGTQVTVSS | high polyreactivity |
| QVQLVESGGGLVQAGGSLRLSCAASGHTFSSYAMGWYRQAPGKERELVAAISVSATRTYYADSVKGRFTISRDNAKNTVYLQMNSLKPEDTAVYYCAARPVQFTYGYWGQGTQVTVSS | high polyreactivity |
| QVQLVESGGGLVQAGGSLRLSCAASGRTFTINTMGWYRQAPGKERELVAAITVSGGSTYYADSVKGRFTISRDNAKNTVYLQMNSLKPEDTAVYYCAAQRSYVNLGQTHDYWGQGTQVNVSS | low polyreactivity |
| QFQLVESGGGLVQAGGSLRLSCAASGSTFYANAMGLYRQAPGKERELVAAISYSGGSTYYADSVKGRFTISRDNAKNTVYLQMNSLKPEDTAVYYCAATNGKKTPKVYYWGQGTQVTVSS | low polyreactivity |

| Sequence | polyreactivity (PSR sort gate) |
| --- | --- |
| QVQLVESGGGLVQAGGSLRLICAASGFTFGEYAMGWYRQAPGKERDFVASISWDGASTYYADSVKGRFTISRDNAKNTVYLQMKSLKPEDTAVYYCAATRYYSFWGQGTQVTVSS | low polyreactivity |
| QVQLVESGGGLVQAGGSLRLSCAASGLTFADNTMGWYRQAPGKERELVAAIDWSGGGTDYADSVKGRFTISRDNAKNTVYLQMNSLKPEDTAVYYCNAERTSWEDDYWGQGTQVTVSS | low polyreactivity |
| QVQLVESGGGLVQAGGSLRLSCAASGNTFSTYGMGWYRQAPGKERELVAGITSDGRTNYADSVKGRFTISRDNAKNTVYLQMNSMKPEVTAVYYCAAEWASRFAVFWAYPKYDYWGQGTQVTVSS | low polyreactivity |
| QVQLVESGGGLVQAGGSLRISCAASGRIFPVNAMGWYRQAPGKERELVARISWRGGTYYADSVKGRFTISRDNAKNTVYLQMNSLKPEDTAFYYCAATLASTSYWYHYGYWGQGTQVTVSS | high polyreactivity |
| QVQLVESGGGLVQAGGSLRLSCAASGPIYTYAMGWYRHAPGKERELVAAISRRGGSTYYADSVKGRFTISRDNAKNTVYLQMNSLKPEDTAVYYCAKERSFGDGNFDYEYWGQGTQVTVSS | high polyreactivity |
| QVQLVESGGGIVQAGGSLRLRCAASGSIISVYAMGWYRQAPGKERELLDGITISGGRTYYADSVKGRFTISRDYAKNTVYLQMNSMKPEDTAVYYCAADWVYPPGLNDSVHFGEYDYWGQGSQVTVSS | low polyreactivity |
| QVHLVESGGGLVQAGGSLRLSCAASGFTFRFYAMGCYIQAPGKERELVAAISSTGIRTYYADSLKGRFTISRDNSKNTDYLQMNSLKPEDTAVYYCAKLHRDSILDYWGQGTQVTVSS | high polyreactivity |
| QVQLVESGGGLVQARGSLRLSCAASGSIFYGNTMGWYRQAPGKESEFVAAISYGGGGTYYADSVKGRFTISRDNAKNTVYLQMNILKPEDTAVYYCATDDPLYQINEQGMDYWGLGTQVTVSS | low polyreactivity |
| QVQLVESGGGLVQAGGSLRLSCAASGSTFNWYAMGWYRQAPGKEMELVAAITSTGGSTYADSVKGRFTISRDNAKNTVYLQMNSLKPEDTAVYYCNVDTSSPSRRDYDYWGQGTQVTVSS | low polyreactivity |
| QVQLVESGGGLVQAGGSLRLSCAASGITFGWNVAMGWYRQAPGKERELVATITNGGSTKYADSVKGRFTISRDNAKNTVYLQMNSLKPEDTAVYYCAARVYHRFEWFHQYDYWGQGTQVTVSS | high polyreactivity |
| QVQLVESGGGLVQAGGSLRLSCAASGITFPWYAMGWYRQAPGKERELVAAISSDADTYYADSVKGRFTISRDNAKNTVYLQMISLKPEDTAVYYCAAETFDYSRGYTAMGYWGQGTQVTVSS | high polyreactivity |
| QVQLVESGGGLVQAGGSLRLSCADSGYIFYPYTMGWYRQAPGKEMELDAAITWSGSTYYADSVKGRFTISRDNAKNTVYLQMNSLKPEDTAVYYCAADFDSYDSYTYLQYDYWGQGTQVTVSS | low polyreactivity |
| QVQLVESGGGLVHAGGSLRLSCSASGFTFYKYAMGWYRQAPGKERELVAAFSYSGGSTYYADSVKGRFTISRDNAKNTVYLQMNSLKPEDTAVYYCAARVRGTGYNSWGQGTLVTVSS | high polyreactivity |
| QFQLVESGGGLVQAGGSLRLSCASSGGTFGNNDMGWYRQAPGKESELVAAIRSAGTTYYADSVKGRFTISRDNAKNTVYLQMNSLKPEDTAVYYCNADTTGYWSYGFQYYGEDYWGQGTQVTVSS | low polyreactivity |
| QVQHVESGGGLVQAGGSLRLSCAASGFIFVRNTMGWYRQAPGKERELVATITRRGGSTSYADSVKGRFTISRDNAKNTVYLQMNSLKPEDTAVYFCNARSVYGSKQEEYWGQGTQVTVSS | high polyreactivity |
| QVQLVESGGGLVQAGGSLRLSCAASGFTFSLYAMGWYRQAPGKEREMVAAISRIGGRTYYADSVKGRFTISRDNAKNTVYLQMNSLKPEDTAVYYCAARQGYRSYRRYDYWGQGTQVTVSS | high polyreactivity |
| QVQLVESGGGLVQAGGSLRLSCAASGSTFYENTMGWYRQAPGKERELVAAISFRGGSTYYADSVKGRFTISRDNAKNTVYLQMNSLKPEETAVYYCAKEYYTVRLYDYWGQGTQVTVSS | low polyreactivity |
| QVQLVESGGGLVQAGGSLRLSCAASGRIFDYNVMGWYRQAPGKERELVAGISSGGSTYYADSVKGRFTISRDNAKNTVYLQMNSLKPEDTEVYYCAARGRPYRGYGYWGQGTQVTVSS | high polyreactivity |
| QVQLVESGGGLVQAGGSLRLTCAASGFTFRRYAMGCYRKAPGKERLLVAAISYSGGITYYADSVKGRFTISRDNAKNTVYLHMNSLKAEDTAVYYCAADYFAPYKTYDYWGQGTQVTVSS | high polyreactivity |
| QVQLVESGGGLFQAGGSLRLSCAASRLIFPLYAMGWYRKAPWKERELVAANTRGGSTYYADSVKGRLTISSDNANNTVYLQINSLKAEDTAVYDCNDELPVHWSWYDYWGQGTQVTVSS | low polyreactivity |
| QVQLVDSGGGLVQAGGSLRLSCAASGSTFDTNVMGWYRQAPGKERELVAAIDVSGGSTYYADSVKGRFTISRDNAKNTVYLQMNSLKPVDTAVYYCAAEDGQYGMDYWGQGTQVSVSS | low polyreactivity |
